B1: wild-type KHNYN-GFP [human] / ZAP-L (zinc finger antiviral protein, long isoform) [modified: C-terminal S-farnesylation; C-terminal S-farnesylation] [human (endogenous in HeLa)] (parent)
chain 1: MPTWGARPASPDRFAVSAEAENKVREQQPHVERIFSVGVSVLPKDCPDNPHIWLQLEGPKENASRAKEYLKGLCSPELQDEIHYPPKLHCIFLGAQGFFLDCLAWSTSAHLVPRAPGSLMISGLTEAFVMAQSRVEELAERLSWDFTPGPSSGASQCTGVLRDFSALLQSPGDAHREALLQLPLAVQEELLSLVQEASSGQGPGALASWEGRSSALLGAQCQGVRAPPSDGRESLDTGSMGPGDCRGARGDTYAVEKEGGKQGGPREMDWGWKELPGEEAWEREVALRPQSVGGGARESAPLKGKALGKEEIALGGGGFCVHREPPGAHGSCHRAAQSRGASLLQRLHNGNASPPRVPSPPPAPEPPWHCGDRGDCGDRGDVGDRGDKQQGMARGRGPQWKRGARGGNLVTGTQRFKEALQDPFTLCLANVPGQPDLRHIVIDGSNVAMVHGLQHYFSSRGIAIAVQYFWDRGHRDITVFVPQWRFSKDAKVRESHFLQKLYSLSLLSLTPSRVMDGKRISSYDDRFMVKLAEETDGIIVSNDQFRDLAEESEKWMAIIRERLLPFTFVGNLFMVPDDPLGRNGPTLDEFLKKPARTQGSSKAQHPSRGFAEHGKQQQGREEEKGSGGIRKTRETERLRRQLLEVFWGQDHKVDFILQREPYCRDINQLSEALLSLNF
chain 2: MADPEVCCFITKILCAHGGRMALDALLQEIALSEPQLCEVLQVAGPDRFVVLETGGEAGITRSVVATTRARVCRRKYCQRPCDNLHLCKLNLLGRCNYSQSERNLCKYSHEVLSEENFKVLKNHELSGLNKEELAVLLLQSDPFFMPEICKSYKGEGRQQICNQQPPCSRLHICDHFTRGNCRFPNCLRSHNLMDRKVLAIMREHGLNPDVVQNIQDICNSKHMQKNPPGPRAPSSHRRNMAYRARSKSRDRFFQGSQEFLASASASAERSCTPSPDQISHRASLEDAPVDDLTRKFTYLGSQDRARPPSGSSKATDLGGTSQAGTSQRFLENGSQEDLLHGNPGSTYLASNSTSAPNWKSLTSWTNDQGARRKTVFSPTLPAARSSLGSLQTPEAVTTRKGTGLLSSDYRIINGKSGTQDIQPGPLFNNNADGVATDITSTRSLNYKSTSSGHREISSPRIQDAGPASRDVQATGRIADDADPRVALVNDSLSDVTSTTSSRVDDHDSEEICLDHLCKGCPLNGSCSKVHFHLPYRWQMLIGKTWTDFEHMETIEKGYCNPGIHLCSVGSYTINFRVMSCDSFPIRRLSTPSSVTKPANSVFTTKWIWYWKNESGTWIQYGEEKDKRKNSNVDSSYLESLYQSCPRGVVPFQAGSRNYELSFQGMIQTNIASKTQKDVIRRPTFVPQWYVQQMKRGPDHQPAKTSSVSLTATFRPQEDFCFLSSKKYKLSEIHHLHPEYVRVSEHFKASMKNFKIEKIKKIENSELLDKFTWKKSQMKEEGKLLFYATSRAYVESICSNNFDSFLHETHENKYGKGIYFAKDAIYSHKNCPYDAKNVVMFVAQVLVGKFTEGNITYTSPPPQFDSCVDTRSNPSVFVIFQKDQVYPQYVIEYTEDKACVIS

Variants of: B1
Assay: co-immunoprecipitation (GFP IP, immunoblot for endogenous ZAP, quantified)
Conditions: with ZAP-L (zinc finger antiviral protein, long isoform) [modified: C-terminal S-farnesylation, HeLa cell lysates, N = 3, parent: 1, read off a plot

Row | Variant | ratio to parent
1 | chain 1 L676Q F678E | 0.38

— PMC9888277
